According to paper PMC8413284:

What was measured:
[1] = target: recombinant human FcγRI (human) (UniProt P12314); experiment: SPR
[2] = target: recombinant human FcγRIIIa (human) (UniProt P08637); experiment: SPR; F158 allotype
[3] = target: recombinant human FcγRIIa (human) (UniProt P12318); experiment: SPR; R131 allotype
[4] = target: rituximab hIgG1 μtp pre-formed hexamer (human); experiment: negative stain electron microscopy; antibody 10 μg/ml on grids, 2% uranyl acetate, x80,000
[5] = target: rituximab hIgG1 μtp pre-formed hexamer (human); experiment: SEC-MALS; 50 μg on Superdex 200 increase 10/300, PBS pH 7.4, 0.5 ml/minute; absolute molecular weight
[6] = target: rituximab hIgG1 μtp pre-formed hexamer (human); experiment: SEC; SE-UHPLC after Protein A purification, against molecular weight controls; ACQUITY BEH200, 200 mM phosphate pH 7.0, 1 µg injected

UniProt P12314, sequence (P12314 16-292): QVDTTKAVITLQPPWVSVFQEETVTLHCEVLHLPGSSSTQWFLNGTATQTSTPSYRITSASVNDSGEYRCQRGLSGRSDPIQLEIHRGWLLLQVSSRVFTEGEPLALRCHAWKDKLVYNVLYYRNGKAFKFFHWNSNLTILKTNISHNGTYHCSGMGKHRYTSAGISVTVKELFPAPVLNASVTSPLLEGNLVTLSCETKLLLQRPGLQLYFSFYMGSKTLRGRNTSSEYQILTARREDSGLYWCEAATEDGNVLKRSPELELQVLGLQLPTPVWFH
UniProt P08637, sequence (P08637 17-208): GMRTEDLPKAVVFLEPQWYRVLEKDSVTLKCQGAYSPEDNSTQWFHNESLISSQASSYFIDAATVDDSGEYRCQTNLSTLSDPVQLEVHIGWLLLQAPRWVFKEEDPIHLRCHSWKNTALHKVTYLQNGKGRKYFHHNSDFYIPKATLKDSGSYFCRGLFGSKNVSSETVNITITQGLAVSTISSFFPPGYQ
UniProt P12318, sequence (P12318 34-217): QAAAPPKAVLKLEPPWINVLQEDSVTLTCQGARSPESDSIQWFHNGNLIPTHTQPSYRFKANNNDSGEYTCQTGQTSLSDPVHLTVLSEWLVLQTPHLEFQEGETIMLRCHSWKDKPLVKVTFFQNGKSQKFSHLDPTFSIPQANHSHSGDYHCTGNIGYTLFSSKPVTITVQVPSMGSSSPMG

| Substance | Kd [1] [nM] | Kd [2] [nM] | Kd [3] [nM] | stoichiometry N [4] | stoichiometry N [5] | stoichiometry N [6] |
| --- | --- | --- | --- | --- | --- | --- |
| rituximab hIgG1 μtp pre-formed hexamer | 7.53 | 410 | 964 |  |  |  |
| rituximab hIgG1 μtp pre-formed hexamer (antibody) |  |  |  | 6 | 6 | 6 |
| rituximab hIgG1 wild-type | 4.36 | 719 | 935 |  |  |  |
